Measured values published in patent US20110311550A1 (Scripps Research, published 2011).
Residue numbers refer to the chain shown, from its start.

B1: Fab P3 (Fab, V domains shown)
VH: EVQLLESGGGVVQPGKSLRLSCAVSGFTLNTFAMHWVRQVPGKGLEWVALTSHDGSRQDYADSVRGRFTISRDNSKSMVFLLMNSLRAEDTAVYYCVRGGPAYYTYNDVLTGYAYVVGDFWGQGTLVTVSS
VL: not shown
B2: Fab P4 (Fab, V domains shown)
VH: not shown
VL: ELTQSPGTLSLSPGERATLSCRASQSVSSSNLAWFQHKSGRAPRLLIYGASNRAPDIPDRFSGSGSGTDFTLSISRLEPEDFAVYYCQRYGDSPPITFGQGTRLEIKR
B3: Fab P6 (Fab, V domains shown)
VH: EVQLLESGGGVVQPGKSLTVSCAASGFTFSTFTMHWVRQAPGKWLEWVAVISHDGGTEHYADSVTGRFTISRDNSKNTLHMQMNSLRLEDTAVYFCARGGPAYYLYNDVLTGYYNVVGDFWGQGTLVTVSS
VL: B2 VL with T3I, S10F, P13S, L72I
B4: Fab P1 (Fab, V domains shown)
VH: EVQLLESGGGVVQPGGSLRLSCAASGFTFTSFTMHWVRQAPGKGLEWVALISHDGSNKDYADSVRGRFTVSRDNSKKMVYLQMSSLRPDDAAVYYCARGGPAYYTYSDTLTGYHNVVGDYWGQGTLVTVSS
VL: ELTQSPGTLSLSPGERATLSCRASQVRGFLAWFQQKPGQAPRLLIYGASNRAPGIPDRFSGSGSGTDFTLTISRLEPEDFAVYYCQQYGDSPPITFGQGTRLEIKR
B5: Fab P1a (Fab, V domains shown)
VH: B4 VH
VL: ELTQSPGTLSLSPGERATLSCRTSQSVSSTYLAWYQQKPGQPPRLLIYGASNRAPGIPDRFSGSGSGTDFTLTISRLEPEDFAVYYCQQYGDSPPITFGQGTRLDIKR
B6: Fab O1 (Fab, V domains shown)
VH: VQLLEQSGAEVKKAGESVRLSCKASGYRFGDYWIAWVRQLPGRAPEWMGIIYPDDSDTKYSPSFQGQVTISADKSIRTTFLDWGSLKASDTAIYYCARGCLGAKCYYPHYYYGLDVWGQGTTVIVSS
VL: ELTQSPSSLSASVGDRVTITCRATQGIDNYLNWYQQKPGKPPRLLIYGASSLQSGVPSRFSGGGSGTHFTLTITNLQPEDFATYYCQQSYSTPPETFGQGTKVEIKR
B7: Fab N3 (Fab, V domains shown)
VH: VQLLEQSGAEVKKPGDSLRISCKMSGDSLVWIGWVRQKPGQGLEWMGIINPGDSATNIYPGDSDTRYGPSFQGQVTISIDKSTSTAYLQWNAVKASDTGIYYCARHVPVPISGTFLWREREMHDLGYFDDWGQGTLVIVSS
VL: not shown
B8: Fab Q1 (Fab, V domains shown)
VH: VQLLEQSGAEVRKPGASVKVSCKASGYTFTNNGLNWVRQAPGQGLEWMGWISPYNGDTDFAHKFQGRISMTTDTSTNTAYMELRSLRSDDTAVYYCARDRNSAGGTWLFRDPPPGSTFFDSWGQGSLVTVSS
VL: not shown
B9: Fab Q2 (Fab, V domains shown)
VH: B8 VH with R12K
VL: ELTQSPASLSLSPGGSATLACRASRGVNSNLAWYHQKPGQAPRLLIYSASTRATGIPGRFSGSGFGTEFTLTINNLQSDDFGVYYCQQYDDTPQITFGQGTRLDIKR
B10: Fab V1 (Fab, V domains shown)
VH: VQLLEQSGAEVQKPGASVKVSCKPSGYIFTNFGISWVRQAPGQGLEWMAWINTYNGKTTYAQSLQGRVTLTTDPYTNTVFMELRSLRSDDTAVYYCARENEGEYVWGHFRSDYWGQGTLVTVSS
VL: ELTQSPSSLSASVGDRVTITCQASQDISNFLNWYQRRPGKAPNLLIYDATHLETGVPSRFSGSGFGTHFTLTINSLQPEDIGTYYCQHFDDVPSFTFGPGTKVDLKR
B11: Fab N1 (Fab, V domains shown)
VH: VQLLEQSGPEVKKPGDSLRISCKMSGDSLVTTWIGWVRQKPGQGLEWMGIINPGDSSTNIYPGDSATRYGPSFQGQVTISIDKSTSTAYLQWNAVKPSDTGIYYCARHVPVPISGTFLWREREMHDFGYFDDWGQGTLVIVSS
VL: ELTQSPGTLSLSPGERATLSCRASQSVSSSYLAWYQQKPGQAPRLLIYGASNRAAGIPDRFSGSGSGADFTLTISRLEPEDFAVYYCQQYGSSLITFGQGTRLEIKR
B12: Fab N4 (Fab, V domains shown)
VH: B11 VH with A94N, P97A
VL: ELTLTQSPGTLSLSPGERATLSCRASQSVSNNYLAWYQQKPGQAPRLLIYGASSRATGIPDRFSGSGSGTGFTLIISRLEPEDFAVYYCQQYGSSSITFGQGTRLEIKR
B13: Fab N2 (Fab, V domains shown)
VH: B11 VH with A94T
VL: ELTQSPGTLSLFPGERATLSCRASQSILGRYLAWYQQKGGRAPRLLIFGASKRATGIPDRFSGSGSGTDFTLTIGRLEPEDFAVYYCQHYGSSITFGQGTRLDIKR
B14: Fab P2 (Fab, V domains shown)
VH: EVQLLESGGGVVQPGRSLRLSCAASGFTLDTFTMHWVRQSPGKGLEWVALISHDANNKDYADSVKGRFTISRDNSKKLVYLQMDSLRSEDTAVYYCARGGPAYYLYSDVLTGFHNVVGDYWGQGTLVTVSA
VL: not shown

Tests used:
Assay in all cases: ELISA, Fab on E1E2 antigen
[1] = biological target: HCV E1E2 antigen, isolate UKN3A1.28c (hepatitis C virus, isolate UKN3A1.28c)
[2] = biological target: HCV E1E2 antigen, isolate UKN4.21.16 (hepatitis C virus, isolate UKN4.21.16)
[3] = biological target: HCV E1E2 antigen, isolate J6E3 (hepatitis C virus, isolate J6E3, UniProt P26660 192-383; P26660 384-750)
[4] = biological target: HCV E1E2 antigen, isolate UKN6.5.8 (hepatitis C virus, isolate UKN6.5.8)
[5] = biological target: HCV E1E2 antigen, isolate CH35 (hepatitis C virus, isolate CH35)
[6] = biological target: HCV E1E2 antigen, isolate OH8 (hepatitis C virus, isolate OH8)
[7] = biological target: HCV E1E2 antigen, isolate UKN2B1.1 (hepatitis C virus, isolate UKN2B1.1)
[8] = biological target: HCV E1E2 antigen, isolate UKN1B12.16 (hepatitis C virus, isolate UKN1B12.16)
[9] = biological target: HCV E1E2 antigen, isolate UKN5.15.7 (hepatitis C virus, isolate UKN5.15.7)
[10] = biological target: T1, HCV E1E2 antigen, isolate JFH (hepatitis C virus, isolate JFH, UniProt Q99IB8 192-383; Q99IB8 384-750)
T1 construct: also called JFH-1

Binder | OD 450 nm [1] [OD 450 nm] | OD 450 nm [2] [OD 450 nm] | OD 450 nm [3] [OD 450 nm] | OD 450 nm [4] [OD 450 nm] | OD 450 nm [5] [OD 450 nm] | OD 450 nm [6] [OD 450 nm] | OD 450 nm [7] [OD 450 nm] | OD 450 nm [8] [OD 450 nm] | OD 450 nm [9] [OD 450 nm] | OD 450 nm [10] [OD 450 nm]
B1 | 0.33 | 0.15 | 0.11 | 0.03 | 0.11 | 0.36 | 0 | 0.2 | 0.06 | 0
B2 | 1.07 | 0.99 |  | 0.19 | 0.52 | 1.15 | 0.09 | 0.59 | 0.31 | 0.45
B3 | 0.37 | 0.23 | 0.02 | 0.12 | 0.21 | 0.46 | 0.13 | 0.26 | 0.08 | 0
B4 | 0.98 | 0.62 | 0.08 | 0.06 | 0.27 | 0.8 | 0.03 | 0.26 | 0.17 | 
B5 | 0.18 | 0.04 | 0.03 | 0.05 | 0.08 | 0.24 | 0 | 0.15 | -0.04 | 0
B6 | 0.48 | 0.57 | 0.05 | 0.02 | 0.27 | 0.44 | 0.02 | 0.17 | 0.1 | 0
B7 | 1.27 | 0.96 | 0.66 | 0.23 | 0.59 | 1.32 | 0.29 | 0.62 | 0.37 | 1.2
B8 | 1.07 | 0.85 | 0.19 | 0.1 | 0.48 | 0.96 | 0.03 | 0.38 | 0.3 | 0.43
B9 | 0.35 | 0.17 | 0.25 | 0.16 | 0.19 | 0.43 | 0.15 | 0.21 | 0.05 | 0.18
B10 | 0.06 | 1.02 |  | 0.05 | 0.77 | 1.35 | 0.3 | 0.16 | 0.3 | 
B11 | 1.08 | 0.93 | 0.64 | 0.29 | 0.59 | 1.13 | 0.33 | 0.65 | 0.43 | 0.99
B12 | 1.73 | 1.49 | 0.99 | 0.44 | 1.03 | 1.75 | 0.48 | 1.06 | 0.71 | 1.57
B13 | 1.36 | 1.09 | 0.92 | 0.4 | 0.82 | 1.44 | 0.44 | 0.81 | 0.46 | 1.34
B14 | 1.05 | 0.78 | 0.6 | 0.22 | 0.47 | 1 | 0.18 | 0.59 | 0.25 | 0.88
